How the values were obtained:
[1] = target: T1, sRAGE (V-C1-C2) lot LP08062 (human, UniProt Q15109 23-331, limits assumed); assay: SPR (Biacore), mAb captured on anti-mouse Fc, sRAGE 15 nM, Langmuir 1:1
T1 construct: domain: V-C1-C2; also called Human RAGE; LP08062 (Rage)
Method: The assay is based on a capture assay using immobilized anti-mouse Fc IgG on CM5 chip. For immobilization of anti-Fc antibody HBS-EP was used as running buffer. Standard amine coupling to a CM5 chip was carried out at a contact time of 11 min and a flow rate of 10 μl/min. 10 mM Sodium Acetate pH 5.0 was used as immobilization buffer. The protein concentration (anti-mouse Fc, Biacore BR-1008-38) was 100 μg/mL.
For binding analysis SN anti-RAGE mAb diluted in running buffer at 1/10 (flow rate 5 μl/min) and sRAGE (V-C1-C2) lot LP08062 diluted in running buffer at 15 nM (flow rate 50 μl/min) was used as […], respectively (running buffer: HBS-P+BSA 12 mg/mL+CM Dextran 12 mg/mL and Regeneration solution: 10 mM Glycine pH 1.7). Langmuir 1:1 analysis was used as fitting model.

[2] = target: rat sRAGE (rat, UniProt Q63495 23-341, limits assumed); assay: ELISA, O.D. 450 nm, one bar per species; plate format and antibody concentration not given
Chain of rat sRAGE (Q63495 23-341 limits assumed): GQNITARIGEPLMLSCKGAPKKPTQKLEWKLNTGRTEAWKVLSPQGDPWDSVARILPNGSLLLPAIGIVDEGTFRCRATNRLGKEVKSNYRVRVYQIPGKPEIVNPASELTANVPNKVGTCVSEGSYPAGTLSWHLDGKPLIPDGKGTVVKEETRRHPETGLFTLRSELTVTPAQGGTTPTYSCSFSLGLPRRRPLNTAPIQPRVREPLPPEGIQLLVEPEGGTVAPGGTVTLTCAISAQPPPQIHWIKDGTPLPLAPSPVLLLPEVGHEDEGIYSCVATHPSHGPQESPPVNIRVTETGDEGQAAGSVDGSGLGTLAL

[3] = target: mouse sRAGE (mouse, UniProt Q62151 23-340, limits assumed); assay: as above
Chain of mouse sRAGE (Q62151 23-340 limits assumed): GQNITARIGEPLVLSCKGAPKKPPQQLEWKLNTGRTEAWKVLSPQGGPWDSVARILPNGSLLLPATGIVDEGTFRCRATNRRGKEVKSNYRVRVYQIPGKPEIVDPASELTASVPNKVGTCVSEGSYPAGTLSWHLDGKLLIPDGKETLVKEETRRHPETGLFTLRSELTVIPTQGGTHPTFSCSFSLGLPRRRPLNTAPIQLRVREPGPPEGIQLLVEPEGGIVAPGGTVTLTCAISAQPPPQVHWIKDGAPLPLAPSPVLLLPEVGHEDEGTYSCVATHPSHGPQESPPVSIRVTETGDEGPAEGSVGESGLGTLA

T1 sequence (Q15109 23-331 limits assumed): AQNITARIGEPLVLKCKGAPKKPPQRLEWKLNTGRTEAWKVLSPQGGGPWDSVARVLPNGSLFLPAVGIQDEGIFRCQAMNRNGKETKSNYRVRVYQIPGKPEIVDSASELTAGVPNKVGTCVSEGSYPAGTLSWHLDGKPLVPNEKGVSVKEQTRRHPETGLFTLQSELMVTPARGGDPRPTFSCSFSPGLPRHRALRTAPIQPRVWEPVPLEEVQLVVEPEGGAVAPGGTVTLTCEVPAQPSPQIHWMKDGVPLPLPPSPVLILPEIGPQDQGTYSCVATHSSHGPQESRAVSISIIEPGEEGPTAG

B1: 140 RAGE-1 (antibody, V domains shown)
VH: QVQLQQPGAELVKPGASVRLSCKASGYTFTSYWMHWVKQRPGQGLEWIGEINPSNGRTNYNEKFKSKATLTVDKSSSTAYMQLSSLTSEDSAVYYCARDGLGYRPIAMDYWGQGTSVTVSS
VL: QIVLTQSPAIMSASPGEKVTISCSASSSVSYMYWYQQKPGSSPKPWIYRTSNLASGVPARFSGSGSGTSYSLTISSMEAEDAATYYCQQYHSYPPMYTFGGGTKLEIK
notes: Anti-RAGE monoclonal antibody from a hybridoma, captured by anti-mouse Fc; also called Protein 140 RAGE-1
B1 showed a Kd [1] of 303 pM, a koff [1] of 0.00157 s⁻¹ and a kon [1] of 5.19e+06 M⁻¹ s⁻¹.

B2: 347 RAGE-1 (antibody, V domains shown)
VH: QVQLQQSGAELAKPGASVKMSCRASGYTFTDYWMHWVKQRPGQGLEWIGFINPSTVYTEYIPKFKDKATLTADKSSSTAYMQLSSLTSEDSAVYYCARSDGGWYFDVWGAGTTVTVSS
VL: DIQMTQSSSYLSVSLGGRVTITCKASDRINYWLAWYQQKPGNAPRLLISGATTLETGVPSRFSGSGSGKDYTLSITSLQTEDVATYYCQQYWSTPYTFGGGTKLELK
notes: Anti-RAGE monoclonal antibody from a hybridoma, captured by anti-mouse Fc
B2 was tested, and the binding result [2] was “no binding (tested: not given)”, the binding result [3] was “no binding (tested: not given)” and the Kd [1] was 666 pM. It also gave a koff [1] of 0.00227 s⁻¹ and a kon [1] of 3.41e+06 M⁻¹ s⁻¹.

B3: 95 RAGE-1 (antibody, V domains shown)
VH: QVQLQQPGAELVKPGASVKLSCKASGYTFTSYWMHWVKQRPGQGLEWIGESNPSNGRTNYNEKFKNKATLTVDKSSSTAYMQLSSLTSEDSAVYYCARAPYYGFDYWGQGTTLTVSS
VL: QAVVTQESALTTSPGETVTLTCRSSTGAVTTSNYANWVQEKPDHLFTGLTGGTNNRAPGVPARFSGSLIGDKAALTITGAQTEDEAIYFCALWYSNHWVFGGGTKLTVL
notes: Anti-RAGE monoclonal antibody from a hybridoma, captured by anti-mouse Fc; also called Protein 95 RAGE-1
B3 gave a Kd [1] of 462 pM, a koff [1] of 0.00123 s⁻¹ and a kon [1] of 2.66e+06 M⁻¹ s⁻¹.

B4: 130 RAGE-1 (antibody, V domains shown)
VH: EVQLVESGGGLVKPGGSLKLSCAASGFTFSSYVMSWVRQSPEKRLEWVAEISSGGSYTYYPDTVTGRFTISRDNDKNTLYLEMSSLRSEDTAMYYCARPPYGKDAMDYWGQGTSVTVSS
VL: QIVLTQSPAIMSASPGEKVTMTCSASSSVSYMHWYQQKSGTSPKRWISDTSKLASGVPARFSGSGSGTSYSLTISSMEAEDAATYYCQQWSSNPPTFGGGTKLEIK
notes: Anti-RAGE monoclonal antibody from a hybridoma, captured by anti-mouse Fc; also called Protein 130 RAGE-1
In the case of B4, the binding result [2] is reported as “no binding (tested: not given)”, the binding result [3] is reported as “no binding (tested: not given)” and the Kd [1] is reported as 236 pM. For the same binder, the koff [1] was 0.00136 s⁻¹ and the kon [1] was 5.76e+06 M⁻¹ s⁻¹.

B5: 250 RAGE-1 (antibody, V domains shown)
VH: EVKLEESGGGLVQPGGSMKLSCVASGFTFSNYWMNWVRQSPEKGLEWVAEIRLKSNNYATHYAESVKGRFTISRDDSKSSVYLQMNNLRAEDTGIYFCIRDYGNYAMDYWGQGTSVTVSS
VL: DIVMTQSQKFMSTSVGDRVSVTCKASQNVGTNVAWYQQKPGQSPKALIYSASYRYSGVPDRFTGSGSGTDFTLTISNVQSEDLAEFFCQQYNSYPLTFGAGTKLELK
notes: Anti-RAGE monoclonal antibody from a hybridoma, captured by anti-mouse Fc; also called Protein 250 RAGE-1
B5 was tested, and the binding result [2] was “no binding (tested: not given)”, the binding result [3] was “no binding (tested: not given)” and the Kd [1] was 556 pM. It also gave a koff [1] of 0.00199 s⁻¹ and a kon [1] of 3.58e+06 M⁻¹ s⁻¹.

B6: 316 RAGE-1 (antibody, V domains shown)
VH: QVQLQQSGPELVRPGASVKMSCKASGYTFTSYWMHWVKQRPGQGLEWIGMIDPSNSETRLNQKFKDKATLNVDKSSNTAYMQLSSLTSEDSAVYYCARNFYGSSLRVWGAGTTVTVSS
VL: DIVLTQSPASLAVSLGQRATISCRASKSVSISGYSYLHWNQQKPGQSPKLLIYLASNLESGVPARFSGSGSGTDFTLNIHPVEEEDAATYYCQHSRELPYTFGGGTKLEIK
notes: Anti-RAGE monoclonal antibody from a hybridoma, captured by anti-mouse Fc; also called Protein 316 RAGE-1
For B6, the binding result [2] was “no binding (tested: not given)”, the binding result [3] was “no binding (tested: not given)” and the Kd [1] was 319 pM. It also gave a koff [1] of 0.00177 s⁻¹ and a kon [1] of 5.54e+06 M⁻¹ s⁻¹.

Source: patent US20120282637A1 (Sanofi, published 2012)
